# B1: Gemtuzumab (antibody, V domains shown)
# VH: EVQLVQSGAEVKKPGSSVKVSCKASGYTITDSNIHWVRQAPGQSLEWIGYIYPYNGGTDYNQKFKNRATLTVDNPTNTAYMELSSLRSEDTAFYYCVNGNPWLAYWGQGTLVTVSS
# VL: DIQLTQSPSTLSASVGDRVTITCRASESLDNYGIRFLTWFQQKPGKAPKLLMYAASNQGSGVPSRFSGSGSGTEFTLTISSLQPDDFATYYCQQTKEVPWSFGQGTKVEVKR
# Columns and labels:
# [1] = molecular target: Jurkat TCRb knockout cells; assay: flow cytometry on Jurkat KO (TCRb knockout) cells, negative control, antibody at 10 ug/ml
# [2] = molecular target: Jurkat TCRb knockout cells; assay: flow cytometry, Jurkat KO (TCRb knockout) cells, negative control, 10 ug/mL
# [3] = molecular target: Jurkat TCRb knockout cells; assay: flow cytometry, Jurkat KO (TCRb knockout) cells, negative control, 1 ug/mL
# [4] = molecular target: Jurkat TCRb knockout cells; assay: flow cytometry on Jurkat KO (TCRb knockout) cells, negative control, antibody at 1 ug/ml
binder,measurement,setting,value
B1,flow cytometry signal,[1],2820
same,gMFI,[2],1830 gMFI
same,gMFI,[3],1860 gMFI
same,flow cytometry signal,[4],3000

# Reference: patent publication US20260167721A1
